Results: paper PMC6061939 (Biochemical and biophysical research communications, 2017)
Each block holds one molecule with its values, some of them ahead of it.

Columns and labels:
Assay in all cases: SEC
[1] = target: Dictyostelium discoideum Mdm12 (residues S2-N202) (Dictyostelium discoideum)
[2] = target: Saccharomyces cerevisiae Mmm1Δ (SMP domain) (Saccharomyces cerevisiae) (UniProt P41800)
[3] = target: T1, Saccharomyces cerevisiae Mmm1Δ (SMP domain) (Saccharomyces cerevisiae, UniProt P41800 194-409)
T1 sequence (looked up): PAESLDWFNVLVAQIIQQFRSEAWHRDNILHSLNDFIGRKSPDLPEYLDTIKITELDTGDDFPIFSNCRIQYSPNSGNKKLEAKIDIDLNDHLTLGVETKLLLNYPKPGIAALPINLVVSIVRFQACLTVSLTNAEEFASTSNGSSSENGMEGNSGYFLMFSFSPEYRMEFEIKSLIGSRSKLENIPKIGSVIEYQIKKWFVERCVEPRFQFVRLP

stoichiometry N [1]: 2
Molecule: Dictyostelium discoideum Mdm12 (residues S2-N202) (natural protein)

stoichiometry N [2]: 1
Molecule: Saccharomyces castellii Mdm12 (residues S2-E244) (natural protein)

stoichiometry N [3]: 1
B1: Saccharomyces cerevisiae Mdm12 (natural protein)
chain: MSFDINWSTLESDNRLNDLIRKHLNSYLQNTQLPSYVSNLRVLDFDLGKVGPAITLKEITDPLDEFYDSIREEADQETEENNDNKEDSEHICPDRTIANHEGPKDDFEAPVVMPSPNDIQFLLEVEYKGDLLVTIGADLVLNYPVEKFMTLPVKLSISDIGLHSLCIVACLSKQLFLSFLCDVSDPALDDNQTVLDPKGPILAATKPLERISIVRSMKIETEIGEQYQGQGSVLRSVGELEQFLFTIFKDFLRKELAWPSWINLDFNDGDE
